The results in this text go back to the domain aggregation screens of Martell et al. (2025).

This series can be described thus: soluble fraction after stress (log2 fold change); higher = more stays soluble; pooled small domains, quantitative proteomics. To be noted: stress: 50 degC. In short, it runs like this:
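Each library was heated to 50°C as a stress step. The libraries, made up of small protein domains, were pooled and analysed at high throughput by quantitative proteomics. The reported value is the base-two logarithm of the fold change in each protein's soluble amount after stress, taken as a measure of aggregation propensity. The higher the value, the more protein stays in solution.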
Take “HMTSKTLSAVEGEGLRLDKFLSNQLPELSRTKIQKMINDGLVFVNNTEAKASLILDGSEFIAYTVPD”: the “soluble fraction (log2)” value was -0.0541.
As for “HMAAYRLIPLGNSNKDFETYQEAIQYMRDKLDESSKAFEEGKQNWVYSGRVYGVPWSDGRTTFTVDLVPKV”, the “soluble fraction (log2)” value is 0.164.
On to “HMNLYERFPIHELWKETFNETLDEEEHITFITSEFKPENIVLGQGFIAAPSKKDAVDWLKVIRTVLIFYDS”, for which the “soluble fraction (log2)” value was -0.941.
For the sequence “HMFQNYTDAVVVASKTFFYNMPDESTRKSAYLIQGDRIMVEKSQRNFVYVTFTNEASGRTTTGWLKSDDLE”, the “soluble fraction (log2)” value was -2.9.
Consider “HMEFQEQLYRLRKQAGLSQEELSHIIGVSRQAVQKWEAGSARPDLDNLIALASHFKLSLDQLVGLT”, for which the “soluble fraction (log2)” value was -0.555.
For “HMRTKEGLASQLEKIPGIGPVKRKALLKKFGSIDAIAAASKEELMLTDGITSSLADAIRDYF”, the “soluble fraction (log2)” value was 0.00122.
With “HMGSFTDKQIKQAFGVLNDPRFKQGNYDGAVAVINKIAPGLADHPSVANALKRANEATQDIAQQTQA”, the “soluble fraction (log2)” value came to 0.161.
As to “HMEQSLNTYSIRTVKESLFLAETKNLNKIEKLVEGIEGRLTLSEALVLFSDKLNAMSVLSHVNANT”, the “soluble fraction (log2)” value was -0.148.
In the case of “HMEGVSSESVKEMLKSIIDGEDPHNPVSDQRITDILNSRGINISRRTVAKYRDELGIASSSRRKRY” it was 0.0818.
For the sequence “HMENQFNDWSLTPSEKEVALFMLKGLSTQEIAAARNTKEKTVRQQASAVYAKSQLDGRYALAAWFFEDI”, the “soluble fraction (log2)” value was -0.567.
Turning to “HMSETIVFGQQKAINTLSSEAGLSSAELNNYLKKRYQRPLFQLTVSEGADLIQGFQDGTLTKASITQYVSQ”, the “soluble fraction (log2)” value is -0.0548.
In the case of “HMKIVQDIAFSDFLNEVEKDNVLDVNIKGDLINGNLADGRKFKTYTPYDPNLIEKLSNKNVTINVEPYN”, the “soluble fraction (log2)” value turned out to be 0.198.
For “HMENLSGNDIKYLRKKYNLTQKELADALGLQKFGDRTIRRWEAEETHPSKLEQSSIQSFFNSLK”, the “soluble fraction (log2)” value came out at 0.0091.
Consider “HMSSQGQNTKTGTVTASALYVRSGAGTNYSQIGYLLKNTKVEIVGQTGSWYKIKFGSGTGYVSSKYIK”, for which the “soluble fraction (log2)” value is -0.652.
For the sequence “HMIEYILDYLANRGVYAASQGEQQQMEDGIARYLQENGLEDGNTGAYYQKYVSNHLQQISASDLKAYFLN”, the “soluble fraction (log2)” value was -0.529.
As to “HMRAVPSIAFVTQKLIEQGVTMEQLVRSLLLDHEEYENDDSLERTADELFGKARMIISNYTPE”, the “soluble fraction (log2)” value is -1.01.
On to “HMYDFGVILQKLRKEKGFTQEQLARLIHKESSIISRYEKGLQNPTFETVKEFAAIFNVSMDYLAG”, for which the “soluble fraction (log2)” value is -1.25.
In the case of “HMTNEWRKILSNLNGKYQIVMELFYVDGFSTKEIARMLHITEVNVRSRMVRGRKQLEQILTVR” it was -0.15; in that of “HMQVVVEKSKEKVIISGNQYYIHIVKKGETAFSIAKAYGITVDELVKNNPSAATVLKEGQALRIPVVE”, 0.119.
The figure for “HMDAYMIGHNIAKWRKEKGMTQDQLAEHLSVSGQAVSKWENGASLPDIAILPKLAEIFDVTMDQLFSR” is 0.144; for “HMGLDQNTLDRVDDINDTLATGIEIGPETRGTIEELNETLANGLKAGFDEETLARVDELLRVVEDGLK” it is 0.0149; for “HMVTTTEAAKMLLVNAGHDVIKDGLTGASWASNTMKLADADGLLASVATKPNDALPRQYAAQMIYN” it is 0.076.
With “HMHPNPLTEQEIAVLKGIAQGLSNQEIADQLYLSNGTVRNYVTNILSKLDAGNRTEAANIAKESGW”, the “soluble fraction (log2)” value came to 0.143.
As to “HMTKASEELYFRLKEELGTGVIVEHKKYGEGVVTQLDDRLVHIMFQDDTLRMMDLKILANAGLLKVK”, the “soluble fraction (log2)” value turned out to be 0.189.
Turning to “HMDSPRITMDQLRIGLYVYLDLTWFQHPFAFSHFKINSEDQIKTILGLGLKSVRYDPALSDPV”, the “soluble fraction (log2)” value is -2.67.
Regarding “HMISESLLDEIPGLGETRRNSLLREFGSVAMIRKASAEEIASRVRGIGAEFAAAIHDFLQTH”, the “soluble fraction (log2)” value was -0.0611.
In the case of “HMIGRRLKVARASAGLSLRELAARMDGVVTPQAIGKYERNEDMPGSRALMALASALGVSEGYLLSD” it was -0.831; in that of “HMENEFEAYSDGSSIQLNDPSKATYVVFDRQGRLLHLFQNHSLSSLSIERKNQILIITRETADGVSVKKIV”, -0.415; in that of “HMTPKVAVPSFVGWKFEDVERQLGTMGLIRGKVDNHPSEEYSEGRVIWQSVLGEVEKGKVIDFWVSTGPE”, -0.0362.
For “HMFEDYLRMKGLSIVSFSKQTGIPISTLRNLNKIRYDKWKIRYLEELSNVLNKTIQEIIEELKNMG”, the “soluble fraction (log2)” value is -2.32.
In the case of “HMYLQKGISNGKVYLSIVHGYRDPVTKKVRRKTIRSLGYLEDLEKQYADPIKHFEAVVAKMNEEEALE”, the “soluble fraction (log2)” value was -0.517.
With “HMDDIHTFVYETETPFDPQKLDRYIGSLTAVYGQDMLRYKGILYFAGVDRRVVFQGVHMLAV”, the “soluble fraction (log2)” value was -0.0916.
Regarding “HMAGGVFELTGKVTADAKAGDLVYVKAATGAGTKPVVTTVKTGADVIIGWLKEPVSSASVDQKMQVVLA”, the “soluble fraction (log2)” value amounted to 0.147.
With “HMTITDDETHKVLEEGASRMSEGLTFRDLVDLDRLHLTARGVIQKVLNENRIDADVDTIANMAQKLVARVS”, the “soluble fraction (log2)” value was -0.0539.
For the sequence “HMNGVSNETLIQKSALYEELNQPDLALKMINTALKKDSVNIEILHRLVTLLMSQEKNEEAILYNQKIIDH”, the “soluble fraction (log2)” value was 0.022.
With “HMSEYTRGELVSSLEAGEVAAVSIRPNRETPTGEAQIVLSDGQHRVLYVTDVREIEELVSSYGLNPQVEK”, the “soluble fraction (log2)” value amounted to 0.233.
In the case of “HMFKITNTLNKTAEVYLTIPENKKGKGKIMISVNGAFHELEAMTENDKIQSGAVVKVVRIENDNILIVET”, the “soluble fraction (log2)” value is -1.88.
For “HMNVPFGYTIKDGLLVEQPDEKAILDNILTWKKGQMTVAEIAKKTGMETWKIYGILNYWRNK”, the “soluble fraction (log2)” value is -0.875.
In the case of “HMPMHPEDLKKLVSIEMPFGKHKGRIIADLPGNYLNWFAREGFPPGEIGRLLQLMQEIDHNGLSDLLKPLR”, the “soluble fraction (log2)” value is -0.3.
“HMSQDEKITNYIYEGNKNTQTEAFVEAEKSYRKALSLSPEKPEALYNLGNTHFLDKQYDEASQRFF”: the “soluble fraction (log2)” value worked out at 0.0647.
Regarding “HMHDYTTIIGVIELRLNKISYDNVQKRYRIGRSGISLIMERYRDSGLSLDDLKQMPAEKVVNLIYPKD”, the “soluble fraction (log2)” value was -0.954.
In the case of “HMGFSLEQFGTDPDLKKIVENAFERIITASEGRIFKSDFSSNNSALPLEIFSFLIAVILLKLSGMN”, the “soluble fraction (log2)” value was -0.142.
As to “HMTTQIPEEVQKRVNQFYEALDEEDYGEAKQILEELEKATAPDHPTLIQMRTRYEFDTMELR”, the “soluble fraction (log2)” value turned out to be 0.186.
With “HMKMSLKENLLELLQKSSGEFLSGERAAETLGVSRTAVWKAVTSLKNEGYNIESVTNRGYRFS”, the “soluble fraction (log2)” value is -0.0145.
As to “HMVDYYEILGVSPDASRKDIENAWRKKMREAHPDMGGSEDKAQLLNEAHKVLSDESARAEYDASR”, the “soluble fraction (log2)” value came out at 0.103.
For “HMLYKNIAKKLRFRINSDEFAIGDVLPTERQLMEEYQASRVSIRKAIDELVAIDLIEKKQGSGTYIKQKEV”, the “soluble fraction (log2)” value is -0.919.
“HMPVEFVKISIKPGHPWENQFVRDIVSLPDLLMVLILRGEERIIPNGNTKILVGDKIVLSALSPG”: the “soluble fraction (log2)” value is -0.779.
On to “HMASLSRRELEVLELLALRLTVKEVAERLVISELTAKRHTSNIYQKLGVNRRRDALAAAQARGLLGAR”, for which the “soluble fraction (log2)” value is -2.9.
The figure for “HMSVTIENQINTYFQTRDKISRDELVALIKKDFANWTDNTINIYVSSLQKRGIIHSLSRGMYALGN” is -1.98; for “HMSRGTRIDPNWQPSPEDRALARAEGFSDPEIDREALQFRDYWLGASGSNAVKLDWSATWRNWVRRAATNF” it is 0.0774.
